From paper PMC7305236
No end group written: not given here.

B1: CXCL11 (ligand)
chain: FPMFKRGRCLCIGPGVKAVKVADIEKASIMYPSNNCDKIEVIITLKENKGQRCLNPKSKQARLIIKKVERKNF
B2: Met enkephalin (peptide)
peptide: YGGFM
B3: BAM22 (peptide)
peptide: YGGFMRRVGRPEWWMDYQKRYG
B4: adrenorphin Y1F variant (peptide)
peptide: FGGFMRRV-NH2
B5: adrenorphin-derived peptide … (peptide)
peptide: AYGGFMRRV-NH2
B6: adrenorphin-derived peptide YGGFMARV (peptide)
peptide: YGGFMARV-NH2
B7: adrenorphin-derived peptide … (peptide)
peptide: YGGFMRRVR-NH2
B8: adrenorphin-derived peptide YGGFQRRV (peptide)
peptide: YGGFQRRV-NH2
B9: adrenorphin-derived peptide YGGFMRRQ (peptide)
peptide: YGGFMRRQ-NH2
B10: adrenorphin-derived peptide YGGFLRRV (peptide)
peptide: YGGFLRRV-NH2
B11: adrenorphin-derived peptide … (peptide)
peptide: YGGFMRRVA-NH2
B12: adrenorphin-derived peptide YGSFMRRV (peptide)
peptide: YGSFMRRV-NH2
B13: adrenorphin-derived peptide YGGFFRRV (peptide)
peptide: YGGFFRRV-NH2
B14: adrenorphin-derived peptide YGGWMRRV (peptide)
peptide: YGGWMRRV-NH2
B15: adrenorphin-derived peptide YGAFMRRV (peptide)
peptide: YGAFMRRV-NH2
B16: adrenorphin-derived peptide YGGFARRV (peptide)
peptide: YGGFARRV-NH2
B17: adrenorphin-derived peptide YGGFMKRV (peptide)
peptide: YGGFMKRV-NH2
B18: adrenorphin-derived peptide (…)2 (peptide)
peptide: YGGFMRRVC-NH2
modifications: also: dimer of two chains
B19: adrenorphin-derived peptide YGGFMRRK (peptide)
peptide: YGGFMRRK-NH2
B20: second-generation peptide … (peptide)
peptide: FGGWMRRFR-NH2
B21: second-generation peptide FGGWMRRF (peptide)
peptide: FGGWMRRF-NH2
B22: second-generation peptide … (peptide)
peptide: FGGFMRRKR-NH2
B23: second-generation peptide … (peptide)
peptide: FGGWMRRVR-NH2
B24: second-generation peptide FGGWMRRK (peptide)
peptide: FGGWMRRK-NH2
B25: second-generation peptide … (peptide)
peptide: FGGWMRRKR-NH2
B26: second-generation peptide FGGFMRRF (peptide)
peptide: FGGFMRRF-NH2
B27: second-generation peptide FGGWMRRV (peptide)
peptide: FGGWMRRV-NH2
B28: second-generation peptide … (peptide)
peptide: FGGFMRRFR-NH2
B29: second-generation peptide … (peptide)
peptide: FGGFMRRVR-NH2

What follows are binders tested against ACKR3 C-terminally tagged with SmBiT (human) (UniProt P25106).
Sequence of ACKR3 C-terminally tagged with SmBiT (human) (P25106 whole entry): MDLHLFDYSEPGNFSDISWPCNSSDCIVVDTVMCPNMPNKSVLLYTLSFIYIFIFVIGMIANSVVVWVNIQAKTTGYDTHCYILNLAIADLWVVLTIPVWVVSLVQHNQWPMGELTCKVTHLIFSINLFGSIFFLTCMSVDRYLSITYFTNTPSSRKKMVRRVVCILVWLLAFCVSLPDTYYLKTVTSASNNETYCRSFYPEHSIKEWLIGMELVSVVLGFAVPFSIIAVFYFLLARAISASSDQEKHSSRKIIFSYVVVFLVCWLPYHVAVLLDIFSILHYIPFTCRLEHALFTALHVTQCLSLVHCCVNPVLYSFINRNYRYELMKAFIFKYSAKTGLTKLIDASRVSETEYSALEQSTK
With B1 the β-arrestin recruitment to ACKR3 (Fig. 4b): EC50 was 2.2 nM.

The binders below were run against mu opioid receptor (MOR) C-terminally tagged with SmBiT (UniProt P35372).
B2 showed a β-arrestin-1 recruitment (NanoBiT, U87 cells): EC50 of 419 nM. Binder B3 has a β-arrestin-1 recruitment (NanoBiT, U87 cells): EC50 of 10 nM.

The binders below were run against delta opioid receptor (DOR) C-terminally tagged with SmBiT (UniProt P41143).
Work on B2 yielded a β-arrestin-1 recruitment (NanoBiT, U87 cells): EC50 of 16.3 nM. B3 gave a β-arrestin-1 recruitment (NanoBiT, U87 cells): EC50 of 367 nM.

Each binder was assayed against kappa opioid receptor (KOR) C-terminally tagged with SmBiT (UniProt P41145).
B3 gave a β-arrestin-1 recruitment (NanoBiT, U87 cells): EC50 of 44.2 nM.

Target: ACKR3 C-terminally tagged with SmBiT (human) (UniProt P25106)
Remark: another data set of the same source
B3 gave a β-arrestin-1 recruitment (NanoBiT, U87 cells): EC50 of 23.5 nM.

Target: ACKR3 C-terminally tagged with SmBiT (human) (UniProt P25106)
Remark: another data set of the same source
B4 gave a potency in β-arrestin-1 recruitment against wild-type adrenorphin (U87 cells) of 10 fold.

These binders were tested against atypical chemokine receptor ACKR3 (formerly CXCR7) (human) (UniProt P25106).
Sequence of atypical chemokine receptor ACKR3 (formerly CXCR7) (human) (P25106 whole entry): as above
Binder B5 has a Supplementary Table 4: EC50 of β-arrestin-1 recruitment to ACKR3, U87 cells of 330 nM. B6 showed a Supplementary Table 4: EC50 of β-arrestin-1 recruitment to ACKR3, U87 cells of 5000 nM. For B7, the Supplementary Table 4: EC50 of β-arrestin-1 recruitment to ACKR3, U87 cells was 12.6 nM. B8 showed a Supplementary Table 4: EC50 of β-arrestin-1 recruitment to ACKR3, U87 cells of 5000 nM. Binder B9 has a Supplementary Table 4: EC50 of β-arrestin-1 recruitment to ACKR3, U87 cells of 110 nM. For B10, the Supplementary Table 4: EC50 of β-arrestin-1 recruitment to ACKR3, U87 cells was 684 nM. B11 showed a Supplementary Table 4: EC50 of β-arrestin-1 recruitment to ACKR3, U87 cells of 72.3 nM. For B12, the Supplementary Table 4: EC50 of β-arrestin-1 recruitment to ACKR3, U87 cells was 668 nM. With B13 the Supplementary Table 4: EC50 of β-arrestin-1 recruitment to ACKR3, U87 cells was 1540 nM. B14 gave a Supplementary Table 4: EC50 of β-arrestin-1 recruitment to ACKR3, U87 cells of 70.3 nM. B15 showed a Supplementary Table 4: EC50 of β-arrestin-1 recruitment to ACKR3, U87 cells of 263 nM. For B16, the Supplementary Table 4: EC50 of β-arrestin-1 recruitment to ACKR3, U87 cells was 5000 nM. For B17, the Supplementary Table 4: EC50 of β-arrestin-1 recruitment to ACKR3, U87 cells was 5000 nM. For B18, the Supplementary Table 4: EC50 of β-arrestin-1 recruitment to ACKR3, U87 cells was 52.9 nM. B19 was tested, and the Supplementary Table 4: EC50 of β-arrestin-1 recruitment to ACKR3, U87 cells was 37 nM.

Each binder was assayed against kappa opioid receptor (KOR) (human) (UniProt P41145).
Work on B5 yielded a Supplementary Table 4: EC50 of β-arrestin-1 recruitment to KOR, U87 cells of 205 nM. For B6, the Supplementary Table 4: EC50 of β-arrestin-1 recruitment to KOR, U87 cells was 2240 nM. With B7 the Supplementary Table 4: EC50 of β-arrestin-1 recruitment to KOR, U87 cells was 21.9 nM. In the case of B8, the Supplementary Table 4: EC50 of β-arrestin-1 recruitment to KOR, U87 cells is reported as 283 nM. Binder B9 has a Supplementary Table 4: EC50 of β-arrestin-1 recruitment to KOR, U87 cells of 63.1 nM. With B10 the Supplementary Table 4: EC50 of β-arrestin-1 recruitment to KOR, U87 cells was 31.9 nM. With B11 the Supplementary Table 4: EC50 of β-arrestin-1 recruitment to KOR, U87 cells was 57.5 nM. With B12 the Supplementary Table 4: EC50 of β-arrestin-1 recruitment to KOR, U87 cells was > 10000 nM. Binder B13 has a Supplementary Table 4: EC50 of β-arrestin-1 recruitment to KOR, U87 cells of 194 nM. B14 was tested, and the Supplementary Table 4: EC50 of β-arrestin-1 recruitment to KOR, U87 cells was > 10000 nM. With B15 the Supplementary Table 4: EC50 of β-arrestin-1 recruitment to KOR, U87 cells was 315 nM. Binder B16 has a Supplementary Table 4: EC50 of β-arrestin-1 recruitment to KOR, U87 cells of 656 nM. B17 showed a Supplementary Table 4: EC50 of β-arrestin-1 recruitment to KOR, U87 cells of 416 nM. In the case of B18, the Supplementary Table 4: EC50 of β-arrestin-1 recruitment to KOR, U87 cells is reported as 79.4 nM. Binder B19 has a Supplementary Table 4: EC50 of β-arrestin-1 recruitment to KOR, U87 cells of 19.2 nM.

These binders were tested against delta opioid receptor (DOR) (human) (UniProt P41143).
B5 gave a Supplementary Table 4: EC50 of β-arrestin-1 recruitment to DOR, U87 cells of 637 nM. In the case of B6, the Supplementary Table 4: EC50 of β-arrestin-1 recruitment to DOR, U87 cells is reported as 147 nM. With B7 the Supplementary Table 4: EC50 of β-arrestin-1 recruitment to DOR, U87 cells was 193 nM. In the case of B8, the Supplementary Table 4: EC50 of β-arrestin-1 recruitment to DOR, U87 cells is reported as > 10000 nM. Work on B9 yielded a Supplementary Table 4: EC50 of β-arrestin-1 recruitment to DOR, U87 cells of 259 nM. B10 gave a Supplementary Table 4: EC50 of β-arrestin-1 recruitment to DOR, U87 cells of 513 nM. B11 showed a Supplementary Table 4: EC50 of β-arrestin-1 recruitment to DOR, U87 cells of 272 nM. For B12, the Supplementary Table 4: EC50 of β-arrestin-1 recruitment to DOR, U87 cells was > 10000 nM. For B13, the Supplementary Table 4: EC50 of β-arrestin-1 recruitment to DOR, U87 cells was 1310 nM. Work on B14 yielded a Supplementary Table 4: EC50 of β-arrestin-1 recruitment to DOR, U87 cells of 1020 nM. For B15, the Supplementary Table 4: EC50 of β-arrestin-1 recruitment to DOR, U87 cells was 1580 nM. With B16 the Supplementary Table 4: EC50 of β-arrestin-1 recruitment to DOR, U87 cells was > 10000 nM. B17 showed a Supplementary Table 4: EC50 of β-arrestin-1 recruitment to DOR, U87 cells of 360 nM. B18 showed a Supplementary Table 4: EC50 of β-arrestin-1 recruitment to DOR, U87 cells of 253 nM. For B19, the Supplementary Table 4: EC50 of β-arrestin-1 recruitment to DOR, U87 cells was 527 nM.

What follows are binders tested against mu opioid receptor (MOR) (human) (UniProt P35372).
B5 was tested, and the Supplementary Table 4: EC50 of β-arrestin-1 recruitment to MOR, U87 cells was 308 nM. With B6 the Supplementary Table 4: EC50 of β-arrestin-1 recruitment to MOR, U87 cells was 35.4 nM. B7 gave a Supplementary Table 4: EC50 of β-arrestin-1 recruitment to MOR, U87 cells of 58.7 nM. With B8 the Supplementary Table 4: EC50 of β-arrestin-1 recruitment to MOR, U87 cells was 5000 nM. For B9, the Supplementary Table 4: EC50 of β-arrestin-1 recruitment to MOR, U87 cells was 183 nM. In the case of B10, the Supplementary Table 4: EC50 of β-arrestin-1 recruitment to MOR, U87 cells is reported as 880 nM. B11 was tested, and the Supplementary Table 4: EC50 of β-arrestin-1 recruitment to MOR, U87 cells was 174 nM. For B12, the Supplementary Table 4: EC50 of β-arrestin-1 recruitment to MOR, U87 cells was > 10000 nM. Binder B13 has a Supplementary Table 4: EC50 of β-arrestin-1 recruitment to MOR, U87 cells of 363 nM. Binder B14 has a Supplementary Table 4: EC50 of β-arrestin-1 recruitment to MOR, U87 cells of 522 nM. With B15 the Supplementary Table 4: EC50 of β-arrestin-1 recruitment to MOR, U87 cells was > 10000 nM. In the case of B16, the Supplementary Table 4: EC50 of β-arrestin-1 recruitment to MOR, U87 cells is reported as > 10000 nM. Binder B17 has a Supplementary Table 4: EC50 of β-arrestin-1 recruitment to MOR, U87 cells of 63.8 nM. With B18 the Supplementary Table 4: EC50 of β-arrestin-1 recruitment to MOR, U87 cells was 271 nM. For B19, the Supplementary Table 4: EC50 of β-arrestin-1 recruitment to MOR, U87 cells was 252 nM.

Target: atypical chemokine receptor ACKR3 (formerly CXCR7) (human) (UniProt P25106)
Remark: another data set of the same source
B20 gave a Supplementary Table 5: EC50 of β-arrestin-1 recruitment to ACKR3 of 19.1 nM. Binder B21 has a Supplementary Table 5: EC50 of β-arrestin-1 recruitment to ACKR3 of 19.1 nM. B22 gave a Supplementary Table 5: EC50 of β-arrestin-1 recruitment to ACKR3 of 1.12 nM. Binder B23 has a Supplementary Table 5: EC50 of β-arrestin-1 recruitment to ACKR3 of 6.16 nM. B24 was tested, and the Supplementary Table 5: EC50 of β-arrestin-1 recruitment to ACKR3 was 4.39 nM. B25 was tested, and the Supplementary Table 5: EC50 of β-arrestin-1 recruitment to ACKR3 was 7.34 nM. In the case of B26, the Supplementary Table 5: EC50 of β-arrestin-1 recruitment to ACKR3 is reported as 11 nM. B27 was tested, and the Supplementary Table 5: EC50 of β-arrestin-1 recruitment to ACKR3 was 10.5 nM. For B28, the Supplementary Table 5: EC50 of β-arrestin-1 recruitment to ACKR3 was 16.3 nM. Binder B29 has a Supplementary Table 5: EC50 of β-arrestin-1 recruitment to ACKR3 of 3.53 nM.
